# B1: human ClC-3 purified alone (C-terminal mCerulean tag removed) (natural protein)
# chain: MESEQLFHRGYYRNSYNSITSASSDEELLDGAGVIMDFQTSEDDNLLDGDTAVGTHYTMTNGGSINSSTHLLDLLDEPIPGVGTYDDFHTIDWVREKCKDRERHRRINSKKKESAWEMTKSLYDAWSGWLVVTLTGLASGALAGLIDIAADWMTDLKEGICLSALWYNHEQCCWGSNETTFEERDKCPQWKTWAELIIGQAEGPGSYIMNYIMYIFWALSFAFLAVSLVKVFAPYACGSGIPEIKTILSGFIIRGYLGKWTLMIKTITLVLAVASGLSLGKEGPLVHVACCCGNIFSYLFPKYSTNEAKKREVLSAASAAGVSVAFGAPIGGVLFSLEEVSYYFPLKTLWRSFFAALVAAFVLRSINPFGNSRLVLFYVEYHTPWYLFELFPFILLGVFGGLWGAFFIRANIAWCRRRKSTKFGKYPVLEVIIVAAITAVIAFPNPYTRLNTSELIKELFTDCGPLESSSLCDYRNDMNASKIVDDIPDRPAGIGVYSAIWQLCLALIFKIIMTVFTFGIKVPSGLFIPSMAIGAIAGRIVGIAVEQLAYYHHDWFIFKEWCEVGADCITPGLYAMVGAAACLGGVTRMTVSLVVIVFELTGGLEYIVPLMAAVMTSKWVGDAFGREGIYEAHIRLNGYPFLDAKEEFTHTTLAADVMRPRRNDPPLAVLTQDNMTVDDIENMINETSYNGFPVIMSKESQRLVGFALRRDLTIAIESARKKQEGIVGSSRVCFAQHTPSLPAESPRPLKLRSILDMSPFTVTDHTPMEIVVDIFRKLGLRQCLVTHNGRLLGIITKKDILRHMAQTANQDPASIMFN
# notes: human ClC-3 (P51790), the long isoform used for structural analysis (proton glutamate E339); The cloning of a C-terminally tagged ClC-3 is not described elsewhere in the methods; Residues of the PreScission linker may be left after cleavage; also called ligand-free human ClC-3; not shown: mCerulean, C-terminal, cleaved
# B2: human ClC-3 purified in complex with T9A (N-terminal mCerulean tag removed) (natural protein)
# chain: B1 chain
# notes: human ClC-3 (P51790), the long isoform used for structural analysis (proton glutamate E339); Residues of the PreScission linker may be left on the N-terminus after cleavage; PtdIns(3,5)P2 co-purified with the complex; also called ClC-3/T9A; ClC-3/noT9A; not shown: mCerulean, N-terminal, cleaved
# Legend:
# [1] = target: the molecule itself; experiment: cryo-EM structure; ClC-3 alone, 3 mg/ml, no exogenous ligands, glyco-diosgenin, 50 mM Tris-HCl pH 8, 150 mM KCl, 2 mM DTT; C2 symmetry
# [2] = target: the molecule itself; experiment: cryo-EM structure; ClC-3 co-expressed and co-purified with T9A, 5 mg/ml, no exogenous ligands, glyco-diosgenin, 50 mM Tris-HCl pH 8, 150 mM KCl, 2 mM DTT; four classes by 3D classification
Protein,stoichiometry N [1],stoichiometry N [2]
B1,2,
B2,,2
